Test results from patent publication US20190309044A1, “POLYPEPTIDES AND USES THEREOF AS A DRUG FOR TREATMENT OF AUTOIMMUNE DISORDERS” (Compugen Ltd., priority 2017, published 2019).
Entries after “also recorded” stand apart in the source; their conditions may differ.

Assays:
Type in all cases: in vivo, mouse
SJL/J mice [1] = assay: Adoptive transfer R-EAE, clinical score
Description: Female SJL/J mice were primed with 50 μg of PLP139-151/CFA according to the standard laboratory protocol on day 0. On day 8 post disease induction, the inguinal lymph nodes were collected and the total lymph node cells were re-activated in culture in the presence of PLP139-151 for 3 days. At the end of culture, cells were collected and transferred into naive recipient SJL/J mice.
a. Mice were shaved (about a 1 in.×1 in, square on the back between the hind flanks) and injected with CFA/PLP139-151 emulsion at 100 μl per mouse s.c., divided between three spots on the back and flanks. Peptide and final dose given per mouse: 50 μg of PLP139-151 peptide on day 0.
b. On day 8 post priming with PLP139-151/CFA, the draining inguinal lymph nodes were collected, and single cell suspensions were prepared. Total lymph node cells were cultured at a density of 8×10^6 cells per ml in the HL-1 medium plus PLP139-151 peptide (20 μg/ml) in T75 flasks.
c. After 3 days of culture, the PLP139-151 reactivated cells were collected and counted using an hemacytometer. The number of total viable cells and the number of blast cells was determined. […]
f. Mice were scored on the indicated days, on a 0-5 disease score scale per standard laboratory protocol: 0, no abnormality; 1, limp tail; 2, limp tail and hind limb weakness; 3, hind limb paralysis; 4, hind limb paralysis and forelimb weakness; and 5, moribund. […]

SJL/J mice [2] = assay: BBB breakdown and inflammation by fluorescence molecular tomography, adoptive transfer R-EAE; conditions: Day +30
Description: Commercially available near infrared (NIR) imaging agents were used to perform tomographic imaging (PerkinElmer Inc., Boston, Mass.). AngioSense®750 was used as a vascular imaging agent, and Cat B® 680 FAST was used to detect regions of increased lysosomal cathepsin B activity. For the in vivo imaging, mice were injected intravenously with 4 nmol of NIR fluorescent agent 24 hrs prior to imaging, and imaged following the last treatment with Control Ig or C1ORF32 ECD-Fc (SEQ ID NO: 42) (Day +30 post-PLP139-151 blast cell transfer). At the time of imaging, mice were anesthetized by administration of sodium pentobarbital (50 mg/kg) and then imaged using the FMT 2500 fluorescence molecular tomography in vivo imaging system (PerkinElmer Inc., Boston, Mass.). […] Appropriate optical filters allowed the collection of both fluorescence and excitation datasets, and the multiple source-detector fluorescence projections were normalized to the paired collection of laser excitation data. […] The collected fluorescence data was reconstructed by FMT 2500 system software (TrueQuant, PerkinElmer Inc., Boston, Mass.) which compensates for the effects of tissue heterogeneity on light scattering, allowing for the quantification of fluorescence signal within multiple organ regions. […] All data was normalized to fluorescence detected in CFA/saline-immunized healthy control mice. […]

SJL/J mice [3] = assay: T cell and Treg counts in spleen and CNS by FACS, R-EAE with IL-10 or TGFb blockade; conditions: day 44
Description: On day 44 post disease induction, the rest of the mice were sacrificed and spleens and CNS were taken for cell counts and cell population analysis as described below.
4. Experimental stains (CD45, CD3, CD4, CD25, FoxP3, Nrp-1, and Helios)
9. Gating scheme for flow: Singlets (FSC-A vs. FSC-H)->Cells (SSC-A vs. FSC-A)->Live (VID stain negative cells)->CD45hi->CD3/CD4+->CD25/FoxP3+->Helios/Nrp-1

B1: C1ORF32 ECD-Fc (SEQ ID NO:42): human-mouse fusion protein: human C1ORF32 ECD fused to mouse immunoglobulin Fc (SEQ ID NO:42) (protein)
chain: LQVTVPDKKKVAMLFQPTVLRCHFSTSSHQPAVVQWKFKSYCQDRMGESLGMSSTRAQSLSKRNLEWDPYLDCLDSRRTVRVVASKQGSTVTLGDFYRGREITIVHDADLQIGKLMWGDSGLYYCIITTPDDLEGKNEDSVELLVLGRTGLLADLLPSFAVEIMGSENLYFQGSGEPRGPTIKPCPPCKCPAPNLLGGPSVFIFPPKIKDVLMISLSPIVTCVVVDVSEDDPDVQISWFVNNVEVHTAQTQTHREDYNSTLRVVSALPIQHQDWMSGKEFKCKVNNKDLPAPIERTISKPKGSVRAPQVYVLPPPEEEMTKKQVTLTCMVTDFMPEDIYVEWTNNGKTELNYKNTEPVLDSDGSYFMYSKLRVEKKNWVERNSYSCSVVHEGLHNHHTTKSFSRTPGK
modifications: Fusion protein human C1ORF32-ECD fused to mouse IgG2a Fc
SJL/J mice [1]; 100 ug/dose i.p. 3x/wk 2 wks from time of cell transfer
  disease induction / development: complete abolishment of disease induction; also recorded: abolished disease development
SJL/J mice [1]; 100 ug/mouse i.p. 3x/wk 2 wks from onset of disease remission
  clinical signs of the disease: robust inhibition of clinical signs
SJL/J mice [2]; did not reach statistical significance
  monocyte/macrophage activity in the brain and spinal cord (lysosomal CathepsinB activity): decreased monocyte/macrophage activity
SJL/J mice [2]; significantly reduced levels
  vascular leakage in the brain and spinal cord (AngioSense): decreased vascular leakage
SJL/J mice [3]
  leukocytes and T cell counts in the CNS (CD45+, CD4+, CD25+/FoxP3+): pronounced decrease
